Results reported in PMC5362245, “Depletion of Arabidopsis SC35 and SC35-like serine/arginine-rich proteins affects the transcription and splicing of a subset of genes”.

Assays:
SCL30 [1] = biological target: T1, SCL30 (UniProt Q8L3X8 1-262); assay: competition; 0.625-5 uM unlabeled RNA vs 10 nM N1, 0.4 ug SCL30; labeled binding abolished at 5 uM; 20 ul, 2 ug tRNA, 10 nM biotin-RNA, LightShift Chemiluminescent RNA EMSA kit buffer (salt and pH not stated), 30 min room temperature; 6% native PAGE in 0.5x TBE; conditions: protein: recombinant; tags: His; label: none
T1 sequence: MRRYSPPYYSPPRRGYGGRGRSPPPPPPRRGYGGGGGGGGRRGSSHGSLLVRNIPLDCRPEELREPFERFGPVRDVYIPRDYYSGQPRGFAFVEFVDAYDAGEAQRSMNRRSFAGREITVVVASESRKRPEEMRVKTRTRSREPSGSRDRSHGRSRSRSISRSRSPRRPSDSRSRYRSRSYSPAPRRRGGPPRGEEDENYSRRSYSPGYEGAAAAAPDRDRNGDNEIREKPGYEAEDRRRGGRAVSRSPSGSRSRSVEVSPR

SCL30 [2] = biological target: T1, SCL30; assay: EMSA; 2 ug tRNA, 10 nM labeled RNA; 20 ul, 2 ug tRNA, 10 nM biotin-RNA, LightShift Chemiluminescent RNA EMSA kit buffer (salt and pH not stated), 30 min room temperature; 6% native PAGE in 0.5x TBE; conditions: protein: recombinant; tags: His; label: 5' biotin
SCL30 [3] = biological target: T1, SCL30; assay: competition; mutated probe failed to compete with N1; 20 ul, 2 ug tRNA, 10 nM biotin-RNA, LightShift Chemiluminescent RNA EMSA kit buffer (salt and pH not stated), 30 min room temperature; 6% native PAGE in 0.5x TBE; conditions: protein: recombinant; tags: His

Binder: AGAUUAAAGAAGAGGAAAGGAGAAGG (ssRNA) [AT1G53250 RNA, unlabeled competitor]
- binding result (SCL30 [1]): binds

Binder: AGAUUAAAGAAGAGGAAAGGAGAAGG (ssRNA) [AT1G53250 AGAAGA RNA probe]
- binding result (SCL30 [2]): binds

Binder: AGAUUAAUCUUCUGGAAAGGAGAAGG (ssRNA) [AT1G53250 mutated RNA probe (AGAAGA to UCUUCU)]
- binding result (SCL30 [3]): no binding
